Biological target: SARS-CoV-2 spike protein S1 subunit (WIV4) (SARS-CoV-2 (isolate 2019-nCoV, WIV4)), P0DTC2
Details: remark: other sources report otherwise

B1: scFv clone #26 (scFv)
scFv: QAVLTQAPSASGTLGQQVTISCSGTTSNIGRNTVNWYQHLPGTAPKLLIFVSNQRPSGVPDRFSGSKSGTSASLVISGLQSEDEADYYCGAWDDSLDGMLFGGGTKLTVLGSRGGGGSGGGGSGGGGSLEMAQVQLVQSGAEVKKPGASVKVSCKASGYTFTSYGISWVRQAPGQGLEWMGWISAYNGNTNYAQKLQGRVTMTTDTSTSTAYMELRSLRSDDTAVYYCARGYYGDLDPWGQGTLVTVSSTSGQAGQ
Q: How did the IC50 turn out when B1 was run?
A: 1.33 nM

Source: patent publication US20230141962A1
